Results reported in article PMC9352680, “A comprehensive thermodynamic model for RNA binding by the Saccharomyces cerevisiae Pumilio protein PUF4”.
Substitutions are numbered along the chain they refer to. Names and notes keep the numbering of the source.

T1: PUF4 RNA-binding domain (Saccharomyces cerevisiae, UniProt P25339 537-888)
T1 sequence: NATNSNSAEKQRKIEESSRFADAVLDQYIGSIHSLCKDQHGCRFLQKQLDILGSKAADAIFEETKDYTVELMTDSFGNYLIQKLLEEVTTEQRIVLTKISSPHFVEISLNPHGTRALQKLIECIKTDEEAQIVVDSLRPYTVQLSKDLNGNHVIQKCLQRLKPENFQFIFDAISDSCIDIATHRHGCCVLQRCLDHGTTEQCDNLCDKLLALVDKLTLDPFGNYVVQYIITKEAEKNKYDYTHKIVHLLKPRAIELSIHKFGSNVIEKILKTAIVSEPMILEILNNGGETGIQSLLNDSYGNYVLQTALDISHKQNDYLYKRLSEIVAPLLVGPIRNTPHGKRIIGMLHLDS

B1: Ie_S4_P4E.1_K4.1_C4.1_H4.1_[+3TTCCT]_A4.1_F4.1_T4.1 (ssRNA)
RNA: UUUGACAACUGAUCGUUCUUUCUUGUUUCCUAUAUUAUUCUUUCUCGAUCAGUUGUCUUU
B2: Ie_S4_P4E.1_K4.1_C4.1_H4.1_A4.1_[+5CCTCT]_F4.1_T4.1 (ssRNA)
RNA: B1 RNA with U27A, A32C
B3: Ie_S4_P5E.1_K5.1_C5.1_H5.1_A5.1_[+5TTCC]_F5.1_T5.1 (ssRNA)
RNA: B1 RNA with U27A, C29U, C30U, U31C, A32C
B4: Ie_S4_P5E.1_K5.1_C5.1_H5.1_A5.1_[+5TCTC]_F5.1_T5.1 (ssRNA)
RNA: B1 RNA with U27A, C29U, A32C
B5: Ie_S4_P4E.1_K4.1_C4.1_H4.1_[+3CCCTT]_A4.1_F4.1_T4.1 (ssRNA)
RNA: B1 RNA with U27C, U28C, C30U
B6: Ie_S4_P4E.1_K4.1_C4.1_H4.1_A4.1_[+5CTCTC]_F4.1_T4.1 (ssRNA)
RNA: B1 RNA with U27A, C30U, U31C, A32U, U33C
B7: Ie_S4_P4E.1_K4.1_C4.1_H4.1_A4.1_F4.1_[+8CCTCT]_T4.1 (ssRNA)
RNA: B1 RNA with U27A, C29A, C30U, A32C, U33C, A34U, U35C
B8: Ie_S4_P4E.1_K4.1_C4.1_H4.1_[+4CTCTC]_A4.1_F4.1_T4.1 (ssRNA)
RNA: B1 RNA with U27A, U28C, C29U, A32C
B9: Ib_S2_P3E.1_K3.1_C3.1_H3.1_[G2C]_A3.1_[A6C]_F3.1_T3.1 (ssRNA)
RNA: UUUGAUUAAUAUGAUAUCGUUCUUUCUUCUAUCUAUUCUUUCUCGAUAUCAUAUUAAUCUUU
B10: Ib_S2_P3E.1_K3.1_C3.1_H3.1_[A4C]_A3.1_[T5C]_F3.1_T3.1 (ssRNA)
RNA: B9 RNA with C29G, A31C, U32C, C33A
B11: Ib_S2_P3E.1_K3.1_C3.1_H3.1_[G2T]_A3.1_[A6G]_F3.1_T3.1 (ssRNA)
RNA: B9 RNA with C29U, C33G
B12: Ib_S2_P3E.1_K3.1_C3.1_H3.1_[G2A]_A3.1_[A6G]_F3.1_T3.1 (ssRNA)
RNA: B9 RNA with C29A, C33G
B13: Ib_S2_P3E.1_K3.1_C3.1_H3.1_[A4G]_A3.1_[T5C]_F3.1_T3.1 (ssRNA)
RNA: B9 RNA with C29G, A31G, U32C, C33A
B14: Ie_S4_P4E.1_K4.1_C4.1_H4.1_[+4T]_A4.1_F4.1_T4.1 (ssRNA)
RNA: UUUGACAACUGAUCGUUCUUUCUUGUAUUAUUAUUCUUUCUCGAUCAGUUGUCUUU
B15: Ie_S4_P4E.1_K4.1_C4.1_H4.1_A4.1_[+7C]_F4.1_T4.1 (ssRNA)
RNA: B14 RNA with U29A, A30U, U31C
B16: Ie_S4_P4E.1_K4.1_C4.1_H4.1_A4.1_F4.1_[+8C]_T4.1 (ssRNA)
RNA: B14 RNA with U29A, A30U, U32C
B17: Ie_S4_P4E.1_K4.1_C4.1_H4.1_A4.1_F4.1_[+9C]_T4.1 (ssRNA)
RNA: B14 RNA with U29A, A30U, U32A, A33C
B18: Ie_S4_P4E.1_K4.1_C4.1_H4.1_[+3TTT]_A4.1_F4.1_T4.1 (ssRNA)
RNA: UUUGACAACUGAUCGUUCUUUCUUGUUUUAUAUUAUUCUUUCUCGAUCAGUUGUCUUU
B19: Ie_S4_P4E.1_K4.1_C4.1_H4.1_A4.1_[+5TTC]_F4.1_T4.1 (ssRNA)
RNA: B18 RNA with U27A, A30U, U31C
B20: Ie_S4_P4E.1_K4.1_C4.1_H4.1_A4.1_F4.1_[+9CTC]_T4.1 (ssRNA)
RNA: B18 RNA with U27A, U29A, A30U, U33C, A35C
B21: Ie_S4_P4E.1_K4.1_C4.1_H4.1_A4.1_[+5TTT]_F4.1_T4.1 (ssRNA)
RNA: B18 RNA with U27A, A30U
B22: Ie_S4_P5E.1_K5.1_C5.1_H5.1_A5.1_[+6CT]_F5.1_T5.1 (ssRNA)
RNA: B18 RNA with U27A, A30C
B23: Ie_S4_P5E.1_K5.1_C5.1_H5.1_A5.1_[+5CC]_F5.1_T5.1 (ssRNA)
RNA: B18 RNA with U27A, U29C, A30C
B24: Ie_S4_P4E.1_K4.1_C4.1_H4.1_A4.1_[+6CTC]_F4.1_T4.1 (ssRNA)
RNA: B18 RNA with U27A, U29A, A30C, A32C
B25: Ie_S4_P4E.1_K4.1_C4.1_H4.1_A4.1_[+5TCC]_F4.1_T4.1 (ssRNA)
RNA: B18 RNA with U27A, A30C, U31C
B26: Ie_S4_P4E.1_K4.1_C4.1_H4.1_A4.1_[+6TTT]_F4.1_T4.1 (ssRNA)
RNA: B18 RNA with U27A, U29A, A30U, A32U
B27: Ie_S4_P4E.1_K4.1_C4.1_H4.1_A4.1_F4.1_[+8TCC]_T4.1 (ssRNA)
RNA: B18 RNA with U27A, U29A, A30U, A32U, U33C, U34C
B28: Ie_S4_P4E.1_K4.1_C4.1_H4.1_A4.1_[+7CTC]_F4.1_T4.1 (ssRNA)
RNA: B18 RNA with U27A, U29A, A30U, U31C, A32U, U33C
B29: Ie_S4_P4E.1_K4.1_C4.1_H4.1_A4.1_[+7TTC]_F4.1_T4.1 (ssRNA)
RNA: B18 RNA with U27A, U29A, A30U, A32U, U33C
B30: Ie_S4_P4E.1_K4.1_C4.1_H4.1_A4.1_[+6CCT]_F4.1_T4.1 (ssRNA)
RNA: B18 RNA with U27A, U29A, A30C, U31C, A32U
B31: Ie_S4_P4E.1_K4.1_C4.1_H4.1_[+4CTC]_A4.1_F4.1_T4.1 (ssRNA)
RNA: B18 RNA with U27A, U28C, A30C
B32: Ie_S4_P4E.1_K4.1_C4.1_H4.1_A4.1_[+6TCT]_F4.1_T4.1 (ssRNA)
RNA: B18 RNA with U27A, U29A, A30U, U31C, A32U
B33: Ie_S4_P4E.1_K4.1_C4.1_H4.1_A4.1_[+7TCTC]_F4.1_T4.1 (ssRNA)
RNA: UUUGACAACUGAUCGUUCUUUCUUGUAUAUUCUCUAUUCUUUCUCGAUCAGUUGUCUUU
B34: Ie_S4_P4E.1_K4.1_C4.1_H4.1_[+4CT]_A4.1_F4.1_T4.1 (ssRNA)
RNA: UUUGACAACUGAUCGUUCUUUCUUGUACUUAUUAUUCUUUCUCGAUCAGUUGUCUUU
B35: Ie_S4_P4E.1_K4.1_C4.1_H4.1_A4.1_F4.1_[+9TC]_T4.1 (ssRNA)
RNA: B34 RNA with C28U, U29A, A31U, U32A, A34C
B36: Ie_S4_P4E.1_K4.1_C4.1_H4.1_A4.1_[+5CC]_F4.1_T4.1 (ssRNA)
RNA: B34 RNA with C28U, U29C, U30C
B37: Ie_S4_P4E.1_K4.1_C4.1_H4.1_[+4TC]_A4.1_F4.1_T4.1 (ssRNA)
RNA: B34 RNA with C28U, U29C
B38: Ie_S4_P4E.1_K4.1_C4.1_H4.1_A4.1_F4.1_[+8CT]_T4.1 (ssRNA)
RNA: B34 RNA with C28U, U29A, A31U, U32C
B39: Ie_S4_P4E.1_K4.1_C4.1_H4.1_A4.1_F4.1_[+9CC]_T4.1 (ssRNA)
RNA: B34 RNA with C28U, U29A, A31U, U32A, U33C, A34C
B40: Ie_S4_P4E.1_K4.1_C4.1_H4.1_A4.1_[+6TC]_F4.1_T4.1 (ssRNA)
RNA: B34 RNA with C28U, U29A, A31C
B41: Ie_S4_P4E.1_K4.1_C4.1_H4.1_[+3CCTC]_A4.1_F4.1_T4.1 (ssRNA)
RNA: UUUGACAACUGAUCGUUCUUUCUUGUCCUCAUAUUAUUCUUUCUCGAUCAGUUGUCUUU
B42: Ie_S4_P4E.1_K4.1_C4.1_H4.1_[+4TCTC]_A4.1_F4.1_T4.1 (ssRNA)
RNA: B33 RNA with A29C, U31C, C32U, U33A, C34U
B43: Ie_S4_P4E.1_K4.1_C4.1_H4.1_A4.1_[+6TCTC]_F4.1_T4.1 (ssRNA)
RNA: B33 RNA with U31C, C32U, U33C, C34U
B44: Ie_S4_P4E.1_K4.1_C4.1_H4.1_A4.1_[+5TTCC]_F4.1_T4.1 (ssRNA)
RNA: B33 RNA with A29U, U31C, U33A, C34U
B45: Ie_S4_P4E.1_K4.1_C4.1_H4.1_A4.1_[+5TCTC]_F4.1_T4.1 (ssRNA)
RNA: B33 RNA with A29U, U30C, U33A, C34U
B46: Ie_S4_P5E.1_K5.1_C5.1_H5.1_A5.1_[+5CCC]_F5.1_T5.1 (ssRNA)
RNA: B41 RNA with C27A, C28U, U29C, A31C
B47: Ie_S4_P4E.1_K4.1_C4.1_H4.1_A4.1_[+6CCCT]_F4.1_T4.1 (ssRNA)
RNA: B33 RNA with U30C, U31C, C34U
B48: Ie_S4_P4E.1_K4.1_C4.1_H4.1_A4.1_[+5CCTC]_F4.1_T4.1 (ssRNA)
RNA: B33 RNA with A29C, U30C, U33A, C34U
B49: Ie_S4_P4E.1_K4.1_C4.1_H4.1_A4.1_[+6CTCT]_F4.1_T4.1 (ssRNA)
RNA: B33 RNA with U30C, C34U
B50: Ie_S4_P4E.1_K4.1_C4.1_H4.1_A4.1_F4.1_[+8TCTC]_T4.1 (ssRNA)
RNA: B33 RNA with C32U, U33C, C34U, U35C

Biological target: T1, PUF4 RNA-binding domain
Assay: Mg; RNA-MaP; 20 mM Na-HEPES pH 7.4, 30 mM KOAc, 0.75 mM MgCl2, 0.1% Tween-20, 5% glycerol, 0.1 mg/mL BSA, 2 mM DTT; 25 C; 0.0125-409.6 nM protein
Conditions: tags: N-His6-TEV cleaved; C-SNAP kept, Cy3B-labelled; label: tethered on chip by stalled RNA polymerase

| Binder | Kd [nM] |
| --- | --- |
| B1 | 22.7 |
| B2 | 10 |
| B3 | 9.15 |
| B4 | 9.69 |
| B5 | 51.6 |
| B6 | 42.8 |
| B7 | 6.66 |
| B8 | 6.67 |
| B9 | > 2300 |
| B10 | 581 |
| B11 | 189 |
| B12 | 76.2 |
| B13 | 24.6 |
| B14 | 4.34 |
| B15 | 1.92 |
| B16 | 13.1 |
| B17 | 1.51 |
| B18 | 12.7 |
| B19 | 31.3 |
| B20 | 1.39 |
| B21 | 1.72 |
| B22 | 2.21 |
| B23 | 3.27 |
| B24 | 10.3 |
| B25 | 34.1 |

| Binder | Kd [nM] |
| --- | --- |
| B26 | 4.94 |
| B27 | 4.35 |
| B28 | 10.3 |
| B29 | 4.42 |
| B30 | 11.2 |
| B31 | 1.44 |
| B32 | 8.73 |
| B33 | 6.61 |
| B34 | 4.23 |
| B35 | 0.647 |
| B36 | 13.5 |
| B37 | 6.67 |
| B38 | 3.92 |
| B39 | 0.607 |
| B40 | 4.82 |
| B41 | 66.1 |
| B42 | 4.78 |
| B43 | 15.4 |
| B44 | 54 |
| B45 | 35.8 |
| B46 | 7.89 |
| B47 | 22.2 |
| B48 | 43.3 |
| B49 | 12 |
| B50 | 5.61 |
